Assay results as given in patent publication US9766250B2, “Method for detecting protein-protein interaction” (MEDICAL & BIOLOGICAL LABORATORIES CO., LTD., priority 2011, dated 2017).

Experiments:
[1] = target: T1, interaction between BclX(L) and Bak (Homo sapiens, UniProt Q07817); test: Time course of fluorescent foci after ABT-737 addition, BclX(L)/Bak (Example 24); type: cell-based; conditions: 293 cells co-expressing p62(PB1)-BclX(L) and Bak-AG; 15 μM
T1 construct: region having the 1st to 209th amino acids of the BclX(L) protein; expressed in transfected cells; host or cells: 293 cells, transient
Experimental: (§1) The plasmid DNAs were mixed in equal amounts in the following combinations, and the genes were introduced into 293 cells by the same method as that described in Example 2: • a combination of pp62(PB1)-BclX(L) with pBak-hAG; and • a combination of pp62(PB1)-BclX(L) with phAG-Bax.
(§2) Then, to the 293 cells into these plasmid DNAs were introduced, ABT-737 (manufactured by Santa Cruz Biotechnology, Inc.) was added to the final concentration of 15 μM, and images were obtained by the same method as that described in Example 2 every 30 minutes for the cells co-expressing p62(PB1)-BclX(L) and Bak-AG, and every 5 minutes for the cells co-expressing p62(PB1)-BclX(L) and AG-Bax. On the basis of the obtained images, analysis was performed by the same method as that described in Example 11, and a graph was prepared by plotting a total fluorescence intensity of fluorescent foci (assemblies) against time. Note that, in the graph, the x axis represents time (minutes), provided that time when the drug was added is 0, and the y axis represents the total fluorescence intensity of fluorescent foci (assemblies).

[2] = target: T2, interaction between BclX(L) and Bax (Homo sapiens, UniProt Q07817); test: Time course of fluorescent foci after ABT-737 addition, BclX(L)/Bax (Example 24); type: cell-based; conditions: 293 cells co-expressing p62(PB1)-BclX(L) and AG-Bax; 15 μM
T2 construct: region having the 1st to 209th amino acids of the BclX(L) protein; expressed in transfected cells; host or cells: 293 cells, transient
Experimental: as §1, §2

[3] = test system: interaction between an ERK substrate and Pin1(ww); test: Time course of fluorescent foci after EGF and U0126, 293 cells (Example 27); type: cell-based
Experimental: On the next day, EGF (manufactured by SIGMA CO.) was added to the cells to the final concentration of 50 ng/ml. Further, 14 minutes thereafter, U0126 was added to the cells to the final concentration of 10 μM. Meanwhile, the cell observation was started 2 minutes before the EGF addition, and the observed images were obtained every 15 seconds. The obtained images were used to analyze a total fluorescence luminance of fluorescent foci (assemblies) by the same method as that described in Example 11, and a graph was prepared by plotting the total fluorescence luminance against time.

[4] = test system: interaction between calmodulin and M13 peptide of myosin light chain kinase 2; conditions: 200 μM
Experimental: pCalmodulin-hAG and pM13peptide-p62(PB1) were mixed in equal amounts and introduced into HeLaS3 cells by the same method as that described in Example 1. Then, 200 μM histamine (manufactured by Wako Pure Chemical Industries, Ltd.) was added thereto, and fluorescence images were captured over time.

[5] = test system: interaction between Rac1 and PBD; test: Localization of fluorescent foci after mevastatin, Rac1/PBD (Example 22); type: cell-based; conditions: cells co-expressing AG-Rac1 and p62(PB1)-PBD; 10 μM; 15 hours
Experimental: (§3) Then, each of the following combinations of the plasmid DNAs was mixed in equal amounts and introduced into cells by the same method as in Example 2: • a combination of phAG-Rac1 with pp62(PB1)-PBD; and • a combination of phAG-Rac1 with pRhoGDI-p62(PB1). Then, after culturing for 6 hours after the transfection, an inhibitor mevastatin (Enzo Life Sciences, Inc.) against geranylgeranyl group modification was added to the final concentration of 10 μM, allowed for further culturing for 15 hours, and observed.

[6] = test system: interaction between Rac1 and RhoGDI; test: Fluorescent foci after mevastatin, Rac1/RhoGDI (Example 22); type: cell-based; conditions: cells co-expressing AG-Rac1 and RhoGDI-p62(PB1); 10 μM; 15 hours
Experimental: as §3

[7] = target: T3, mTOR(FRB) and FKBP12 interaction (Homo sapiens, UniProt P42345+P62942); test: Degree of fluorescent focus (assembly) formation after rapamycin, fluorescent proteins fused to mTOR(FRB) (Example 8, Table 1); type: cell-based; set-up: key to degree of fluorescent focus formation, Tankyrase (SAM): +++: fluorescent foci were observed in 50% or more of the HeLaS3 cells; ++: fluorescent foci were observed in 50% or less of the HeLaS3 cells; +: fluorescent foci were observed in 293T cells expressing a larger amount of proteins than that in the HeLaS3 cells; conditions: fluorescent protein fused to mTOR(FRB); for degree of fluorescent focus formation, DGKd (SAM): with FKBP12-DGKd(SAM); for degree of fluorescent focus formation, TEL (SAM): with FKBP12-TEL(SAM); for degree of fluorescent focus formation, Tankyrase (SAM): with FKBP12-Tankyrase(SAM), some combinations in 293T cells; for degree of fluorescent focus formation, P62 (PB1): with p62(PB1)-FKBP12
T3 construct: region having the 2025th to 2114th amino acids of the mTOR protein; expressed in transfected cells; host or cells: HeLaS3; 293T for some combinations with FKBP12-Tankyrase(SAM)
Experimental: Note that plasmid DNAs encoding fusion proteins composed of mTOR(FRB) and the corresponding fluorescent proteins were prepared as appropriate by the same method as that described in Example 2. Moreover, regarding the combinations of FKBP12-Tankyrase(SAM) with mKO2, mKeima, mMiCy1, mKO1, MiCy1, and TGuv, the test was conducted by introducing the genes into 293T cells. Specifically, the 293T cells were cultured in DMEM High glucose (manufactured by SIGMA ALDRICH CO.) containing 10% FBS (manufactured by Equitech-Bio Inc.). Moreover, the 293T cells were seeded onto an 8-well chamber (manufactured by Nunc A/S) 6 hours before the plasmid DNAs were introduced. Further, at the time of the transfection, 200 ng of the plasmid DNA encoding FKBP12-Tankyrase(SAM) and 200 ng of one of the plasmid DNAs encoding fusion proteins composed of the fluorescent proteins and mTOR(FRB) were diluted with 30 μl of OptiMEM (manufactured by Life Technologies Corporation), and 1.2 μl of TurboFect Transfection Reagent (manufactured by Thermo Fisher Scientific Inc.) was added thereto and stirred. Then, the resultant was further mixed with 300 μl of the culture solution, subsequently added to the 293T cells, and observed 48 hours later.

[8] = target: T3, mTOR(FRB) and FKBP12 interaction; test: Degree of fluorescent focus (assembly) formation after rapamycin with TFG(PB1) (Example 9, Table 2); type: cell-based; set-up: key: ++: fluorescent foci were observed in 50% or less of the HeLaS3 cells; +: fluorescent foci were observed in the 293T cells expressing a larger amount of proteins than that in the HeLaS3 cells; conditions: fluorescent protein fused to mTOR(FRB), KO1 and dAG (AB) in 293T cells
[9] = test system: interaction between KRas and cRaf; test: EGF-dependent fluorescent foci near the cell membrane, Cos-7 cells (Example 23); type: cell-based; conditions: Cos-7 cells co-expressing p62(PB1)-KRas(WT) and AG-cRaf(R59A); 50 ng/ml; 37° C. for 30 minutes
Experimental: The cells were observed using a total internal reflection fluorescence microscopy system with arc lamp source (manufactured by Olympus Corporation, IX71-ARCEVA) capable of exciting only the vicinity of the cell membrane. Additionally, regarding the combination of pp62(PB1)-KRas (WT) with the phAG-cRaf (R59A), an image was obtained when no EGF was added. After that, EGF (manufactured by SIGMA CO.) was added to the cells to the final concentration of 50 ng/ml and left standing at 37° C. for 30 minutes. Then, the resultant was observed again.

[10] = test system: interaction between HRas and cRaf; test: Time course of fluorescent foci after EGF, HRas/cRaf (Example 28); type: cell-based; conditions: cells with p62(PB1)-HRas(WT) and AG-cRaf(R59A); 50 ng/ml; vicinity of the cell membrane
Experimental: EGF (manufactured by SIGMA CO.) was added thereto to the final concentration of 50 ng/ml. A measurement apparatus capable of detecting a fluorescent signal only in the vicinity of the cell membrane was used for the observation. Note that the observation was started 5 minutes before the EGF addition, and continued at 5-minute intervals for 30 minutes after the addition. The observation was made another 30 minutes thereafter. On the basis of the obtained image data, analysis was performed by the same method as that described in Example 11, and a graph was prepared by plotting a total fluorescence intensity of fluorescent foci (assemblies) against time. Note that, in the graph, the x axis represents time (minutes), provided that time when EGF was added is 0, and the y axis represents the total fluorescence intensity of fluorescent foci (assemblies).

T3 sequence (P42345 2025-2114): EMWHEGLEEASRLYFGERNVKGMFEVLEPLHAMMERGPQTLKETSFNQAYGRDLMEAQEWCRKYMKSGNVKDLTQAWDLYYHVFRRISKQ
T3 sequence (P62942 whole entry, the tested form may be a part): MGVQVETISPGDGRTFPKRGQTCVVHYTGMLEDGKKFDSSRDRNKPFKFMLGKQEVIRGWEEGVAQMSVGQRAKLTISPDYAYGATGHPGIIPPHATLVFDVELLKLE
T1 sequence (Q07817 1-209): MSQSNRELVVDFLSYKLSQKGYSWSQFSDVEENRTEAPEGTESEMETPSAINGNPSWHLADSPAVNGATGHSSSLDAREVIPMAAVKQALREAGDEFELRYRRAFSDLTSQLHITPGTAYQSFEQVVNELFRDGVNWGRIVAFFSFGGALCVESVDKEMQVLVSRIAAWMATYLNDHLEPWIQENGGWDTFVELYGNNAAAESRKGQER
T2 sequence (Q07817 1-209): as above

Compound | degree of fluorescent focus formation, DGKd (SAM) [7] | degree of fluorescent focus formation, TEL (SAM) [7] | degree of fluorescent focus formation, Tankyrase (SAM) [7] | degree of fluorescent focus formation, P62 (PB1) [7] | further results
CN(C)CC[C@H](CSc1ccccc1)Nc1ccc(S(=O)(=O)NC(=O)c2ccc(N3CCN(Cc4ccccc4-c4ccc(Cl)cc4)CC3)cc2)cc1[N+](=O)[O-] [ABT-737] | – | – | – | – | time when the total fluorescence luminance reached a half value [1]: approximately 80 minutes; time when the total fluorescence luminance reached a half value [2]: approximately 35 minutes
N#CC(=C(/N)Sc1ccccc1N)/C(C#N)=C(\N)Sc1ccccc1N [U0126, reference compound] | – | – | – | – | fluorescent foci after U0126 addition ([3]; same cells, 10 μM, added 14 minutes after EGF): the fluorescent foci were slowly decreased
NCCc1c[nH]cn1 [histamine] | – | – | – | – | fluorescent foci at the later time point ([4]; 490 seconds after the cytoplasm calcium ion concentration was decreased): extinguished; fluorescent focus formation after ligand addition ([4]; HeLaS3 cells expressing Calmodulin-AG and M13peptide-p62(PB1), 90 seconds after addition): fluorescent focus formation was detected
CC[C@H](C)C(=O)O[C@H]1CCC=C2C=C[C@H](C)[C@H](CC[C@@H]3C[C@@H](O)CC(=O)O3)[C@H]21 [mevastatin] | – | – | – | – | localization of the interaction between Rac1 and PBD [5]: the interaction took place only in the nuclei; interaction between Rac1 and RhoGDI [6]: reduced
Azami-Green [AG] | +++ (fluorescent foci were observed in 50% or more of the HeLaS3 cells) | +++ (fluorescent foci were observed in 50% or more of the HeLaS3 cells) | +++ (fluorescent foci were observed in 50% or more of the HeLaS3 cells) | +++ (fluorescent foci were observed in 50% or more of the HeLaS3 cells) | degree of fluorescent focus formation, TFG (PB1) [8]: ++ (fluorescent foci were observed in 50% or less of the HeLaS3 cells)
Kikume Green-Red [KikGR] | +++ (fluorescent foci were observed in 50% or more of the HeLaS3 cells) | +++ (fluorescent foci were observed in 50% or more of the HeLaS3 cells) | +++ (fluorescent foci were observed in 50% or more of the HeLaS3 cells) | +++ (fluorescent foci were observed in 50% or more of the HeLaS3 cells) | degree of fluorescent focus formation, TFG (PB1) [8]: ++ (fluorescent foci were observed in 50% or less of the HeLaS3 cells)
Kusabira-Orange 1 [KO1] | +++ (fluorescent foci were observed in 50% or more of the HeLaS3 cells) | +++ (fluorescent foci were observed in 50% or more of the HeLaS3 cells) | ++ (fluorescent foci were observed in 50% or less of the HeLaS3 cells) | +++ (fluorescent foci were observed in 50% or more of the HeLaS3 cells) | degree of fluorescent focus formation, TFG (PB1) [8]: +
Midoriishi-Cyan1 [MiCy1] | +++ (fluorescent foci were observed in 50% or more of the HeLaS3 cells) | +++ (fluorescent foci were observed in 50% or more of the HeLaS3 cells) | + | +++ (fluorescent foci were observed in 50% or more of the HeLaS3 cells) | –
dimeric Keima-Red [dKeima] | +++ (fluorescent foci were observed in 50% or more of the HeLaS3 cells) | +++ (fluorescent foci were observed in 50% or more of the HeLaS3 cells) | ++ (fluorescent foci were observed in 50% or less of the HeLaS3 cells) | +++ (fluorescent foci were observed in 50% or more of the HeLaS3 cells) | –
epidermal growth factor (NSDSECPLSHDGYCLHDGVCMYIEALDKYACNCVVGYIGERCQYRDLKWWELR; Epidermal growth factor; UniProt P01133 971-1023, looked up) [EGF] | – | – | – | – | assembly formation after EGF addition [9]: the assembly formation was observed at the cell membranes; fluorescent foci after EGF addition ([3]; 293 cells expressing p62(PB1)-ERK_substrate and AG-Pin1(ww)-NES, 50 ng/ml): fluorescent foci (assemblies) were significantly observed as time elapsed; interaction between HRas and cRaf after EGF addition [10]: took place by adding EGF
monomeric Keima-Red [mKeima] | +++ (fluorescent foci were observed in 50% or more of the HeLaS3 cells) | ++ (fluorescent foci were observed in 50% or less of the HeLaS3 cells) | + | +++ (fluorescent foci were observed in 50% or more of the HeLaS3 cells) | –
monomeric Kusabira-Orange 1 [mKO1] | +++ (fluorescent foci were observed in 50% or more of the HeLaS3 cells) | +++ (fluorescent foci were observed in 50% or more of the HeLaS3 cells) | + | +++ (fluorescent foci were observed in 50% or more of the HeLaS3 cells) | –
